T1: human CD34 surface antigen on KG1a cells (human, UniProt P28906 32-385)
T1 construct: whole, on cells; The target was always presented on KG1a cells; No recombinant CD34 was used; also called surface antigen CD34; CD34 antigen
T1 sequence (looked up): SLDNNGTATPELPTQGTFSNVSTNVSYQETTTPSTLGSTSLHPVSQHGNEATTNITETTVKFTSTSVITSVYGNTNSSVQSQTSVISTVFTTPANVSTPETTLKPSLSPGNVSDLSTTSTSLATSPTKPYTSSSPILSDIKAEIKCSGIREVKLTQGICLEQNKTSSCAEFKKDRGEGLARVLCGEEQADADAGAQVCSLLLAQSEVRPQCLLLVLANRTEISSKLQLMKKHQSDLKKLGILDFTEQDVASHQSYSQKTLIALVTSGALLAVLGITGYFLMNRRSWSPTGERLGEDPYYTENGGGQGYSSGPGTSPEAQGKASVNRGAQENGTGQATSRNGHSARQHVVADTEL


Target: T1, human CD34 surface antigen on KG1a cells
Test: flow cytometry, antibody titration on CD34+ KG1a cells
Protocol: KG1a cells expressing the surface antigen CD34 were used for determining the antibody binding affinity. The antibody in aliquots were individually added into KG1a cells (about 1×10⁶ cells) and reacted at 4° C. for 1 hour. The cells were washed with the FACS buffer (DPBS buffer with 2% fetus bovine serum) three times and then treated with the goat anti-mouse IgG (H+L) Alexa Fluor 488 responsive to mMy10 IgG and the goat anti-human IgG (H+L) Alexa Fluor 647 responsive to hMy10 IgG at 4° C. for 1 hour. The cells were further washed with the FACS buffer and analyzed under the FACSCalibur flow cytometer.
For determining the binding affinity of hMy10 IgG and mMy10 IgG to the surface antigen CD34 of human stem cells, a KG1a cell line was used as the cell expressing the surface antigen CD34.

Kd	Molecule
6.7 nM	anti-My10 murine monoclonal antibody (mMy10 IgG)
6.9 nM	humanized My10 IgG (hMy10 IgG) (antibody, V domains shown, also called humanized My10 (hMy10) IgG1; humanized anti-human CD34 monoclonal antibody) VH: EVQLVESGGGLVQPGGSLRLSCAVSGFSLTSHGVHWVRQAPGKGLEWLGVIWGAGRTDYNAAFISRLSISRDISKSQVYLQMNSLRAEDTAVYYCARNRYESYFDYWGQGTLVTVSS VL: DIQMTQSPSSLSASVGDRVTITCRSSQNLVHSNGNTYLHWYQQKPGKAPKLLIYKVSNRFSGVPDRFSGSGSGTEFTLTISSLQPEDFATYYCSQSTHVPLTFGQGTKVEIKR

Source: patent publication US20130172533A1 (INDUSTRIAL TECHNOLOGY RESEARCH INSTITUTE, published 2013)
